# Results as given in patent US20260120837A1, “METHODS OF DOSING THERAPEUTIC AGENTS” (Fusion Pharmaceuticals Inc., priority 2022, published 2026).
# Where two headings read alike, the source gives them in different places.
# Columns and labels:
# [1] = cited from earlier work; for KM / Q / VM / Vc / Vp: in vivo; for Cl: linear clearance
# [2] = PK parameters and Ctrans, two-compartment model with mixed linear and nonlinear M-M clearance pathways (four antibodies); assay type: in vivo, human; conditions: calculated by Equation (2), sqrt(KM×VM/Cl)
# Procedure: For this kind of PK model, Ctrans is determined according to Equation (2): […]
# PK parameters listed in Table 3, i.e., Vc, Cl, Vp, Q, VM and KM, were obtained based on the protocols disclosed in Frey et al., 2010; Kloft et al., 2004; Ma et al., 2009; and Okamoto et al., 2021, with modification to be consistent with the current model description provided here.
# [3] = cited from earlier work; for Kdeg: degradation of free target; for Cl / Q / Vc / Vp: in vivo; for Kint: internalization of drug-target complex; for Ksyn: target synthesis
# [4] = PK (TMDD) model parameters and Ctrans, two-compartment TMDD model, QSS approximation; assay type: in vivo, humans; conditions: for Ctrans: Equation (13); for Ttot = Ksyn/Kdeg: total target concentration
# Procedure: For this kind of PK model, Ctrans is determined according to Equation (2), specified by Equation (13).
# where VM and KM are calculated from TMDD model parameters according to Equations (11) and (12).
# PK parameters listed in Table S were obtained based on the protocols disclosed in Stein & Peletier, 2018 and Rodriguez-Vera et al., 2015, with modification to be consistent with the current model description listed in Equations (7A)-(7D).
# [5] = cited from earlier work
# [6] = PK parameters and Ctrans, two-compartment model with nonlinear M-M clearance only (cetuximab, alemtuzumab); assay type: in vivo, human; conditions: calculated by Equation (3)
# Procedure: For this kind of PK model, Ctrans is determined according to Equation (3): […]
# PK parameters listed in Table 1, i.e., Vc, Vp, Q, VM and KM, were obtained based on the protocols disclosed in Dirks et al., 2008 and Mould et al., 2007, with modification to be consistent with the current model description provided herein.
# [7] = Minimal dose to keep plasma concentration Cp(t) above Ctrans for Tdur, two-compartment model solved with deSolve (tocilizumab); set-up: species or system humans
# Procedure: This example requires that Ttrans for the desired therapeutic dose be greater than the pre-determined duration time point post-administration, which is denoted herein as Tdur.
# PK model parameters for tocilizumab such as Vc, Cl, Vp, Q, KM and VM are provided in Example 3. Ctrans is determined to be 8.22 μg/mL or 8.22 mg/L; Tur is pre-determined as 28 days, which is equal to or less than Ttrans.
# [8] = PK parameters for rats and Ctrans, two-compartment model with nonlinear only clearance pathway (phenytoin); assay type: in vivo; conditions: rats
# Procedure: Its PK in rats is described by a two-compartment model with nonlinear only clearance described by M-M equation. For this kind of PK model, […] is determined according to Equation (3): PK parameters listed in Table 2, […] and KM, were obtained based on the protocols disclosed in Della Paschoa et al., 1998, with modification to be consistent with the current model description provided herein.
# [9] = rats; cited from earlier work
# [10] = PK model parameters, Ctrans and therapeutic dose to reach Ctrans at Ttrans, one-compartment model with mixed linear and nonlinear clearance (evolocumab); assay type: in vivo, humans
# Procedure: Ttrans to reach the transitional concentration Ctrans for any dose level Cmax is determined according to Equation(S). When Ttrans and Ctrans are known, Cmax and the therapeutic dose can be determined as follows.
# According to Equation (2), Ctrans is determined to be 115.18 nM or 17.28 mg/L assuming the molecular weight of 150 kDa or 150 kg/mol for a typical antibody. Ttrans is pre-determined to be 28 days. Ttrans and Ctrans can be used to determine Cmax based on Equation(S). Cmax can be obtained from Equation (5) via any root solver as provided in MATLAB™ and RStudio.
# PK parameters listed in Table 6 were obtained based on the protocols disclosed in Kuchimanchi et al., 2018, with modification to be consistent with the current model description listed in Equations (2) and (4).
# [11] = in vivo; cited from earlier work
molecule,measurement,setting,value
Vedolizumab: antibody; two-compartment model with mixed linear and nonlinear clearance,KM,[1],0.851 µg/mL
same,Q,[1],0.161 L/day
same,VM,[1],0.238 mg/day
same,Vc,[1],3.16 L
same,Vp,[1],1.84 L
same,Cl,[1],1.10 L/day
same,Ctrans,[2],0.429 µg/mL
Nimotuzumab: antibody of Table 5; TMDD model under QSS condition (text b119 says efalizumab),Kdeg,[3],5.5 (/hour)
same,Cl,[3],0.000703 (L/hour) ^
same,Q,[3],0.00322 (L/hour)
same,Vc,[3],1.43 L
same,Vp,[3],18.5 L
same,Kint,[3],0.148 (/hour)
same,KQSS = (Kint + Koff)/Kon,[3]; quasi-steady-state constant,6.96 (mg/L)
same,Ksyn,[3],1.43 (μg/mL/hour)
same,Ctrans,[4],142.3 (μg/mL)
same,KM = KQSS,[4]; in vivo,6.96 (mg/L)
same,VM = KsynVc,[4]; in vivo,2.045 (mg/hour)
same,Ttot = Ksyn/Kdeg,[4],0.26 (μg/mL)
Alemtuzumab: antibody; PK described by two-compartment model with nonlinear only clearance,KM,[5]; M-M equation coefficient,338 (μg/L)
same,VM,[5]; M-M equation coefficient,1020 (μg/hour)
same,Vc,[5]; central compartment distribution volume,11.3 (L)
same,Q,[5]; exchange rate between compartments,1.05 (L/hour)
same,Vp,[5]; peripheral compartment distribution volume,41.5 (L)
same,Ctrans,[6],338 (μg/L)
Mavrilimumab: antibody; TMDD model under the QSS condition,Kdeg,[3],2.2 (/day)
same,Koff,[3]; drug-target binding reverse rate constant,10 (/day)
same,Cl,[3],0.3 (L/day) ^
same,Q,[3],1.7 (L/day) ^
same,Vc,[3],2.8 L
same,Vp,[3],5.6 L
same,Kint,[3],2.2 (/day)
same,Ksyn,[3],2.4 (nM/day)^
same,Ctrans,[4],4.96 (nM) ^
same,VM = KsynVc,[4]; in vivo,6.72 (nmol/Day)
same,Km,"[4]; in vivo, read-out: KM = KQSS",0.0011 µM
same,KQSS = (Kint + Koff)/Kon,[4]; quasi-steady-state constant,1.1 (nM) ^
same,Ttot = Ksyn/Kdeg,[4],1.09 (nM) ^
Sibrotuzumab: antibody; two-compartment model with mixed linear and nonlinear clearance,KM,[1],0.219 µg/mL
same,Q,[1],0.902 L/day
same,VM,[1],0.811 mg/day
same,Vc,[1],4.13 L
same,Vp,[1],3.19 L
same,Cl,[1],0.530 L/day
same,Ctrans,[2],0.579 µg/mL
Tocilizumab: antibody; two-compartment model with mixed linear and nonlinear clearance,KM,[1],2.7 µg/mL
same,Q,[1],0.2 L/day
same,VM,[1],7.5 mg/day
same,Vc,[1],3.5 L
same,Vp,[1],2.9 L
same,Cl,[1],0.3 L/day
same,Ctrans,[2],8.22 µg/mL
same,Ctrans,[7],8.22 mg/L
Panitumumab: antibody; two-compartment model with mixed linear and nonlinear clearance,KM,[1],0.401 µg/mL
same,Q,[1],0.389 L/day
same,VM,[1],10.6 mg/day
same,Vc,[1],3.66 L
same,Vp,[1],2.58 L
same,Cl,[1],0.269 L/day
same,Ctrans,[2],3.98 µg/mL
O=C1NC(=O)C(c2ccccc2)(c2ccccc2)N1 [Phenytoin],Q = K12 × Vc,[8],79.98 mL/min
same,Vp = Q/K21,[8],1333 mL
same,Ctrans,[8]; calculated by Equation (3),5.9 µg/mL
same,K12,[9],0.197 min⁻¹
same,K21,[9],0.060 min⁻¹
same,KM,[9],5.9 µg/mL
same,VM,[9],272 µg/min
same,Vc,[9],406 mL
"Evolocumab: antibody; one-compartment model with mixed linear and nonlinear clearance pathways (antibody, chains of the INN, looked up, V domains shown) VH: EVQLVQSGAEVKKPGASVKVSCKASGYTLTSYGISWVRQAPGQGLEWMGWVSFYNGNTNYAQKLQGRGTMTTDPSTSTAYMELRSLRSDDTAVYYCARGYGMDVWGQGTTVTVSS VL: ESALTQPASVSGSPGQSITISCTGTSSDVGGYNSVSWYQQHPGKAPKLMIYEVSNRPSGVSNRFSGSKSGNTASLTISGLQAEDEADYYCNSYTSTSMVFGGGTKLTVL",Ctrans,[10]; Equation (2),115.18 nM
same,Ctrans,[10]; assuming molecular weight of 150 kDa,17.28 mg/L
same,Cl,[11],0.105 L/day
same,Km,[11],0.0273 µM
same,VM,[11],51.02 nmol/day
same,Vc,[11],5.18 L
